Measurements from patent publication US20150132307A1.

Experiments:
[1] = target: Biotinylated murine soluble TWEAK (amino acids 81-225 of SEQ ID NO: 69) (murine) (UniProt O54907); experiment: SPR (Biacore), further experiment, biotinylated soluble TWEAK on streptavidin chip, 25 C
[2] = target: Biotinylated murine soluble TWEAK (amino acids 81-225 of SEQ ID NO: 69) (murine) (UniProt O54907); experiment: SPR (Biacore 2000), biotinylated soluble TWEAK on streptavidin chip, antibody 100 nM as analyte, 25 C
[3] = target: Biotinylated murine soluble TWEAK (amino acids 81-225 of SEQ ID NO: 69) (murine) (UniProt O54907); experiment: SPR (Biacore), biotinylated soluble TWEAK on streptavidin chip, 25 C
[4] = target: Biotinylated murine soluble TWEAK (amino acids 81-225 of SEQ ID NO: 69) (murine) (UniProt O54907); experiment: SPR (Biacore), biotinylated soluble TWEAK on streptavidin chip, 37 C

t/2 diss [min] 25° C. [1] [min]	t/2 diss [min] 25° C. [2] [min]	Biacore t/2 diss. [min] 25° C. murine [3] [min]	Biacore t/2 diss. [min] 37° C. murine [4] [min]	Binder
41	39	–	–	<TWEAK> 305chi (antibody, human IgG1, kappa, V domains shown) VH: QEQLVESGGGLVQPGGSLTLSCKASGFDFSTYYMSWVRQAPGKGLEWIGTVYVRQGTTYYASWLNGRFTISSDNAQNTVDLKMNSLTAADTATYFCAKGGYNYDDAFVIWGPGTLVTVSF VL: AIEMTQTPFSVSAAVGGTVTINCQASQNIYSNLAWYQQKPGQPPKLLMYTASYLASGVPSRFKGSGSRTEYTLTISGVQCADAATYYCQTAYYNSRPDTVAFGGGTEVVVKR
–	–	19	19	Humanized <TWEAK> 305- antibody 27 (antibody, V domains shown) VH: QVQLVQSGAEVKKPGSSVKVSCKASGFDFSTYYMSWVRQAPGQGLEWMGTVYVRQGTTYYASWLNGRVTITADESTSTAYMELSSLRSEDTAVYYCARGGYNYDDAFVIWGQGTLVTVSS VL: DIQMTQSPSSVSASVGDRVTITCQASQNIYSNLAWYQQKPGKAPKLLIYTASYLASGVPSRFSGSGSGTDYTLTISSLQPEDFATYYCQTAYYNSRPDTVAFGGGTKVEIK
–	–	19	17	Humanized <TWEAK> 305- antibody 28 (antibody, V domains shown) VH: EVQLLESGGGLVQPGGSLTLSCAASGFDFSTYYMSWVRQAPGKGLEWVSTVYVRQGTTYYASWLNGRFTISRDNSKNTLYLQMNSLRAEDTAVYYCAKGGYNYDDAFVIWGQGTLVTVSS VL: DIQMTQSPSSVSASVGDRVTITCQASQNIYSNLAWYQQKPGKAPKLLIYTASYLASGVPSRFSGSGSGTDYTLTISSLQPEDFATYYCQTAYYNSRPDTVAFGGGTKVEIK
–	–	22	21	Humanized <TWEAK> 305- antibody 29 (antibody, V domains shown) VH: EVQLLESGGGLVQPGGSLRLSCAASGFDFSTYYMSWVRQAPGKGLEWVSTVYVRQGTTYYASWLNGRFTISRDNSKNTLDLQMNSLRAEDTAVYYCAKGGYNYDDAFVIWGQGTLVTVSS VL: DIQMTQSPSSVSASVGDRVTITCQASQNIYSNLAWYQQKPGKAPKLLIYTASYLASGVPSRFSGSGSGTDYTLTISSLQPEDFATYYCQTAYYNSRPDTVAFGGGTKVEIK
–	–	19	15	Humanized <TWEAK> 305- antibody 33 (antibody, V domains shown) VH: QVQLVQSGAEVKKPGSSVKVSCKASGFDFSTYYMSWVRQAPGQGLEWMGTVYVRQGTTYYASWLNGRVTITADESTSTAYMELSSLRSEDTAVYYCARGGYNYDDAFVIWGQGTLVTVSS VL: AIRMTQSPSSFSASTGDRVTITCQASQNIYSNLAWYQQKPGKAPKLLIYTASYLASGVPSRFSGSGSGTDYTLTISCLQSEDFATYYCQTAYYNSRPDTVAFGGGTKVEIK
–	–	19	19	Humanized <TWEAK> 305- antibody 31 (antibody, V domains shown) VH: EVQLLESGGGLVQPGGSLTLSCAASGFDFSTYYMSWVRQAPGKGLEWVSTVYVRQGTTYYASWLNGRFTISRDNSKNTLYLQMNSLRAEDTAVYYCAKGGYNYDDAFVIWGQGTLVTVSS VL: AIRMTQSPSSFSASTGDRVTITCQASQNIYSNLAWYQQKPGKAPKLLIYTASYLASGVPSRFSGSGSGTDYTLTISCLQSEDFATYYCQTAYYNSRPDTVAFGGGTKVEIK
–	–	22	20	Humanized <TWEAK> 305- antibody 34 (antibody, V domains shown) VH: EVQLLESGGGLVQPGGSLRLSCAASGFDFSTYYMSWVRQAPGKGLEWVSTVYVRQGTTYYASWLNGRFTISRDNSKNTLYLQMNSLRAEDTAVYYCAKGGYNYDDAFVIWGQGTLVTVSS VL: AIRMTQSPSSFSASTGDRVTITCQASQNIYSNLAWYQQKPGKAPKLLIYTASYLASGVPSRFSGSGSGTDYTLTISCLQSEDFATYYCQTAYYNSRPDTVAFGGGTKVEIK
–	–	17	20	Humanized <TWEAK> 305- antibody 32 (antibody, V domains shown) VH: EVQLLESGGGLVQPGGSLRLSCAASGFDFSTYYMSWVRQAPGKGLEWVSTVYVRQGTTYYASWLNGRFTISRDNSKNTLDLQMNSLRAEDTAVYYCAKGGYNYDDAFVIWGQGTLVTVSS VL: DIQMTQSPSTLSASVGDRVTITCQASQNIYSNLAWYQQKPGKAPKLLIYTASYLASGVPSRFSGSGSGTEFTLTISSLQPDDFATYYCQTAYYNSRPDTVAFGGGTKVEIK
–	–	17	15	Humanized <TWEAK> 305- antibody 30 (antibody, V domains shown) VH: EVQLLESGGGLVQPGGSLRLSCAASGFDFSTYYMSWVRQAPGKGLEWVSTVYVRQGTTYYASWLNGRFTISRDNSKNTLYLQMNSLTAEDTAVYYCAKGGYNYDDAFVIWGQGTLVTVSS VL: DIQMTQSPSSVSASVGDRVTITCQASQNIYSNLAWYQQKPGKAPKLLIYTASYLASGVPSRFSGSGSGTDFTLTISSLQPEDFATYYCQTAYYNSRPDTVAFGGGTKVEIK
